Assay results from the nanobody polyreactivity screen of Harvey et al. (2022).

Experiment: yeast display, Sf9 membrane polyspecificity reagent, FACS + sequencing; frameworks hold sequencing errors
How it was run: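 Galactose induction of a Saccharomyces cerevisiae BJ5465 synthetic nanobody display library ran 36–48 hours. The cells were then stained for 1 hour at 4 °C with 10% biotinylated, detergent-solubilized Sf9 membrane reagent, pulled down on streptavidin microbeads and FACS-sorted into low and high (top ~1%) gates on expression and reagent-binding fluorescence. Labels for polyreactivity follow the gate of origin.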

Sequence	polyreactivity (PSR sort gate)
QVQLVESGGGLVQAGGRLRLSCAASGRTFYVYAMGWYRQAPGKERELVAAISWTGGSTYYADSVKGRFTISRDHAKNTVYLQMNSLKPEDTAVYDCAVDVYRRDYVAYEYWGQGTQVTVSS	high polyreactivity
QVQLVESGGGLVQAGGRLRLSCAASGRTIVQNAMVWYRHDPGKERALVAAITSSGGRTYYADSVKGRFTISRDNAKNTVYLQMNSLKPEDTAVYYGAVTLRRGYDYWGQGTQVTVSS	high polyreactivity
QVQLVESGGGLVQAGGRLRLSCAASGSIFAYYAMGSYRQAPGKERELVAAISSSGGSTTYADSVKGRFTISRDNAKYTVYLQMNSLKPDDTAVYYCNAAWRRSRYYNWGQGTQVTVSS	high polyreactivity
QVQLVESGGGLVQAGGRLRLSCAASGSIFDENTMGWYRQAPGKERELVAAITYSGTSTYYADTVKGRFTISRDNAKNTVYLQMNSLKPEDTAVYYCAAEQWRYDGSFTGYGYWGQGTQVTVSS	low polyreactivity
QVQLVESGGGLVQAGGRLRLSCAASGSIFGTNAMGWYRQAPGKERELVAAISSSGTSTYYADSVKGRFTISRDNAKNTVYLQMNSLKPEDTAVYYCAAATNWGGEYWGQGTQVTVSS	high polyreactivity
QVQLVESGGGLVQAGGRLRLSCAASGSIFPYYAMGWDRQAPGKERELVASINQSDGTRYYADSVKGRFTISRDNAKNTVYLQMNSLKPEDTAVYYCAADTTLQAFIRYRPMGSYDSWGQGTQVTVSS	low polyreactivity
QVQLVESGGGLVQAGGRLRLSCAASGSIFPYYVMGWYRQAPGKERELVAAISTSDGSTYADSVKGRFTISRDNAKNTVYLQMNSLKPEDTAVYYCAVANVYYVGYDYWGQGTRVTVSS	low polyreactivity
QVQLVESGGGLVQAGGRLRLSCAASGSSSTPYTMGWYRPAPGKERELVAAISWIGDTTSYADSVKGRFTISRDNAKNTVYLQMNSLKPEDTAVYYCNAEHRGYDYWGHGTQVTVSS	low polyreactivity
QVQLVESGGGLVQAGGRLRLSCAASGSTFFIYAMRCFRQAPGKERELVAAISSRGGRTYYADSVKGRFTISRDNAKNTVYLQMNSLKPEDTAVYYCYFLIYSKGQAFDYWGQGTQVSVSS	high polyreactivity
QVQLVESGGGLVQAGGRLRLSCAASGSTFGAYAMGWYRQAPGKERELVAAIRGSGAGTYYADSVKGRFTISRDNAKNTVYLQMNSLKPEDTAVYYCNTANLRSLGWTFRRYSYEYWGQGTQVTVSS	high polyreactivity
QVQLVESGGGLVQAGGRLRLSCAASGSTFLVYAMGWYRQAPGKERELVAVIRWRDGSTYYADSVKGRFTISRDNAKNTVYLQMNSLKPEDTAGYYCAAVYWGEEYEYWGQGTQVTVSS	low polyreactivity
QVQLVESGGGLVQAGGRLRLSCAASGSTFRLYAMGRYRQAPGKERELVAAIRGSGGSTYYADSVKGRFTISRDNAKNTVYLQMNSMKPEDNAVYYCAARVVVARRSYVGYGYWGQGTQVTVSS	high polyreactivity
QVQLVESGGGLVQAGGRLRLSCAASGSTFVKNTMGWYIQPPGKERELVAAISSRGGSTYYADSVKGRFTISRDNEKNTVYFQMNSLKPEDTAVYYCAKDGRVSRDFDYWGQGTQVTVSS	low polyreactivity
QVQLVESGGGLVQAGGRLRLSCAASGSTFVRYAMGWYRQAPGKERELVAAISSSGATTYYADSVKGRFTISRDNAKNTVYLQMNSLKPEDTAVYYCAKYGRATRGLDNYWGQGTQVTVSS	high polyreactivity
QVQLVESGGGLVQAGGRLRLSCAASGSTFYQYAMGWYRQAPGKERELVAAISKSGGSTYYADSVKGRFTISRDNAKNTVYLQMNSLKPEDTAVYYCATRWIKGRKMVYWGQGTQVTVSS	high polyreactivity
QVQLVESGGGLVQAGGRLRLSCAASGSTFYRYAMGMYRPAPGKERELVAAINRSGVTTYYADSVKGRFTISRDNAKNTVYLQMNSLKPEDTAVYYCAAVLGRGLDYYYLGQGTQVTVSS	high polyreactivity
QVQLVESGGGLVQAGGRLRLSCAASGSTIRRYAMRWYRQAPGKERELVAAIRQRGTSTYYADSVKGRFTISRDNAKNTVYLQMNSLKPEDTAVYYCAADSYSSRGNYWGQGTQVTVSS	high polyreactivity
QVQLVESGGGLVQAGGRLRLSCAASGTRYYAMGWYRQAPGNERELVAGIRWRDGGTYYADSVKGRFTISRDNAKNTVYLQMNSLKPEDTAVYYCNAAQSVELGYDYWGQGTQVTVSS	high polyreactivity
QVQLVESGGGLVQAGGRLRLSCAASGTTFVYYAMGWYRQAPGKERELVAAITASGGRTYYADSVKGRFTISRDNSKNTVYLEMNSLKPDDTAVYYCNARARKSIRVGGYNYWGQGSQVTVSS	high polyreactivity
QVQLVESGGGLVQAGGRLRLSCAASVFIFGIYASGWYRQAPGKDRELVAAITWDTGSTYYADSVKGRFTISRDNAKNTVYLQMNRLKPEDTAVYYRAVDGWDLTYYDSYYSWGQGTQVTVSS	high polyreactivity
QVQLVESGGGLVQAGGRLRLSCAASVGTFRPYAMGWYRQAPGKERELVAAISYTGSTYYADSVKGRFTISRDNAKNTVYLQMNSLKPADTAVYYCAKDFWYPPRFDYWGHGTQVTVSS	low polyreactivity
QVQLVESGGGLVQAGGRLRLSCAATGFTFTYYPMGWYRQATGKETEFVAAITWNSGTTYYADSVKGRFTISRDNAKNTVYLQMISLKPEDTAVYYCNALWHRQRWSRGDYWRQGTQVTVSS	high polyreactivity

Sequence	polyreactivity (PSR sort gate)
QVQLVESGGGLVQAGGRLRLSCASSGGTLSRYAMGWYRQAPGKERELVAAINWIGGRTSYADSVKGRFTISRDNAKNTVYLQMKSLKPEDTAVYYCAAQYYYAPPWRKYDYWGQGTQVTVSS	high polyreactivity
QVQLVESGGGLVQAGGRLRLSCASTGLTLHGNAMGWYRQAPGKERELVATISSSGGSTFYADSVKGRFTISRDNAKNTDYLQMNSLKPEDTAVYYCNADAPYSDDYYVRFDYWGQGTQVTVSS	low polyreactivity
QVQLVESGGGLVQAGGRLRLSCPASGGTFYIYVMGWYRQAPGKESELVAAITSGDSTNYADSVKGRFTISRDNAKNTVYLQMNSLKPEDTAVYYCAVGITQDPLMYYPFFFHYDYWGQGTQVTVSS	low polyreactivity
QVQLVESGGGLVQAGGRLRLSFAASGSIFVFYVMGWYRQAHGKERELVAAISNSGSSTYYADSVKGRFTISRDNAKNTVYLQINSLKPEDTAVYYCAAEYKIPVGFDYWGQGTQVTVSS	low polyreactivity
QVQLVESGGGLVQAGGRLRLSFAASGSIFYRNVLGWYREAPGKERELVATISRGGTTNYADSVKGRFTISRDNAKNTVYLQMNSLKPEDTAVYYCAAPIGDVYVGKGYDSWGQGTQVTVSS	low polyreactivity
QVQLVESGGGLVQAGGRLRLSSAASGFIFWYYAMGWYRQEPGKERELVAAITSGGNTNYADSVKGRFTISRDNAKNTVYLQMNSLKPEDTAVYYCATGRASGREHDSWGQGTQVTVSS	low polyreactivity
QVQLVESGGGLVQAGGRLRLTCAASGINFRSYAMGWYRQATGKERELVAGISLSGGSTYYADSVKGRFTISRDNAKNSDYLQMNSLKPEDTAVYYCATRYHYFGALRYGYCGQGTQVTVSS	high polyreactivity
QVQLVESGGGLVQAGGRLRLTCAASGRIFFWYVMGWYRQATGKERELVAAISSGGRTYYADAVKGRFTISRDNAKNTVYLQMNSLKPEDTAVYYCNVEEYHVRADIGYSNYGYWGQGTQVTVSS	low polyreactivity
QVQLVESGGGLVQAGGRLRLTCAASGSTLPLNAMGWYRQAPGKEREFVASITYSGGNTYYADSVKGRFTISRDNAKNTVYLQMNSLKPEDTAVYYCAVDEYGIWVGWVPYATFGMNYWGQGTQVTVSS	high polyreactivity
QVQLVESGGGLVQAGGRLRLTCSASGFIIRFYAMGWYRQATGKEREFVASISRRAGRTYYADSVKGRFTISRDNAKNTVYLQMNSLKPEDTAVFYCAASGFGSFRYSSTYDYWGQGSQVTVSS	high polyreactivity
QVQLVESGGGLVQAGGRLSLSCAASGSIFEKNAIGWYIQAPGKERELFAAISSSGGRTNYADSVKGRYTISRDNAKITVYFQMNSLKPEDTAVYYCAAYRRGHRYPGYEYWGQGTQVTVSS	high polyreactivity
QVQLVESGGGLVQAGGRLSLSCAASGSIFRNNTMGWYRQAPGKERELVAAISGRGTPTSYADSVKGRFTISRDNAKNTVYLQMNSLKPEDTAVYYCAAVYYWRPGWYVRFDYWGQGTQVTVSS	low polyreactivity
QVQLVESGGGLVQAGGSHGLSCAASGSTFYYNAMGWYRPAPGKERELVARISRSGGSTYADSVKGRFTISRDNAKNTVYLLMNSLKPEDTAVYYCNADAYGTPEFTSYAVRYDHWGQGTQETVSS	low polyreactivity
QVQLVESGGGLVQAGGSHRLRCAASGITLLLNAMGWYRQAPGKERELVAAISEGGGSTYYAHSVKGRFTISRDNAKNTVYLQMNSLKPEDTAVYYCNADRVYRVPSEYDSWGQGTQVTVSS	low polyreactivity
QVQLVESGGGLVQAGGSHRLSCAASGFIFPYYTMGRYRQAPEKERELVAANRYSAGRTYYADSVKGRFTISRDIAKNTVYLQLNSLKPVDTAVYYCNAVSSGDMDYWGQGTQVTVSS	high polyreactivity
QVQLVESGGGLVQAGGSHRLSCAASGFTFWDYAMGWYRKAPGKEREMVAAITSRGTRTYYADSVKGRFTISRDNAKNTVYLQMNSLKPEDTDVYYCATAIPDPDYIHNYWGQGTQVTVSS	high polyreactivity
QVQLVESGGGLVQAGGSHRLSCAASGITFRRNTMGWYRQAPGKERELVATISWRGGNTFYADSVKGRFTFSRDNAKNTVYLQMNSLKPEDTAVYYCNARGYGTLIVRRERMDYWGQGTQVTVSS	high polyreactivity
QVQLVESGGGLVQAGGSHRLSCAASGITLGRYAMGWYRQAPGKEREFVAAISSWSGGSTTYADSVKGRFTISRDNAKNTVYLQMNSLKPEDTAVYYWNARRYYGRYYLGHSDYDYWGQGTQVTVSS	high polyreactivity
QVQLVESGGGLVQAGGSHRLSCAASGLTFFPYAMGWYRQAPGKERELVAAITTSDGTTYYADSVKGRFTISRDNAKNTVYLQMNSLKPEDTAVYYCAAVYSPRSVWWYDYWGQGTQVTVSS	low polyreactivity
QVQLVESGGGLVQAGGSHRLSCAASGLTFYQYSMGWYRQAPGKERELVAAISKSAGSTYYADSVKGRFTISRDNAKNTVYLQMNSLKPEDTAVYYCAARVLRLRYDYWGQGTQVTVSS	high polyreactivity
QVQLVESGGGLVQAGGSHRLSCAASGNAMGCYRQAPGKERELVAAITYGGTTTYYADSVKGRFTISRDNAKNTVYLQMNSLKPEDTAVYYCAADYVFVATPLRYDYWGQGTQVTVSS	low polyreactivity
